The target in this assay is T1, human α-SNAP with an Avitag and a C-terminal 6xHis tag (human, UniProt P54920 1-295, biotin (in vitro biotinylated using BirA ligase; Avitag)).
T1 construct: alpha-soluble NSF attachment protein (α-SNAP), human, amplified from HEK 293 cDNA; The methods describe a single preparation; The biotinylated protein was captured on streptavidin tips for BLI; also called biotinylated α-SNAP; Avi-Tagged human α-SNAP; source: E. coli LEMO21(DE3), pET28b, purified; in vitro biotinylated with BirA ligase; not shown: Avitag, C-terminal, kept
T1 sequence (looked up): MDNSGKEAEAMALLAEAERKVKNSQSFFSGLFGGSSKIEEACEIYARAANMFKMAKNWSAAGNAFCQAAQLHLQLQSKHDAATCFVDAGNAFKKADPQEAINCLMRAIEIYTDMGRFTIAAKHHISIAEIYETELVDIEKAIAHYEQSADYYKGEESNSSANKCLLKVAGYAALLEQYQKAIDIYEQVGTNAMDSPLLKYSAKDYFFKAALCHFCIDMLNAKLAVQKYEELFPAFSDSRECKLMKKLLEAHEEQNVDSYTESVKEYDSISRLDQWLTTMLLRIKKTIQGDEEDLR
Briefly: pull-down; MBP- or GST-tagged Stim1 or Orai1 fragments immobilised on amylose or glutathione resin, incubated with 20–50 nM α-SNAP in Ringer's buffer with 0.1% NP-40 and 2 mM imidazole, 1 hr at 4°C; washed thrice; Western blot for α-SNAP. To be noted: both partners purified. In general terms: A western blot detects proteins with antibodies after separation by electrophoresis.

B1: MBP-Stim1 408–442 (CC3 domain) (domain or fragment, human, UniProt Q13586 408-442, looked up)
chain: KILTAKQALSEVTAALRERLHRWQQIEILCGFQIV
notes: Cloned into pMAL-c5X in frame with MBP; also called Stim1-CC3; source: E. coli LEMO21(DE3), purified by immobilizing on amylose resin
As for B1, the binding result was “binds”.

The values above are taken from PMC8519427, “High affinity associations with α-SNAP enable calcium entry via Orai1 channels” (PLoS ONE, 2021).
